Laboratory results as given in doi:10.1101/2025.06.05.658000.
Like-named read-outs stand apart in the source and are kept apart here.

What was measured:
Assay in all cases: ELISA
[1] = biological target: HLA-DR (DRA1*01:01 / DRB1*01:01), soluble knob-into-hole Fc heterodimer (human)
The majority of HLA-DR = biological target: The majority of HLA-DR
[2] = biological target: HLA-DR (DRA1*01:01 / DRB1*13:01), soluble knob-into-hole Fc heterodimer (human)
[3] = biological target: HLA-DR (DRA1*01:01 / DRB1*13:02), soluble knob-into-hole Fc heterodimer (human)
[4] = biological target: HLA-DR (DRA1*01:01 / DRB1*13:01), soluble knob-into-hole Fc heterodimer (human); remark: listed apart in the source
[5] = biological target: HLA-DR (DRA1*01:01 / DRB1*13:02), soluble knob-into-hole Fc heterodimer (human); remark: listed apart in the source

affinity (The majority of HLA-DR) [nM]	affinity [2] [nM]	affinity [3] [nM]	affinity [4] [nM]	affinity [5] [µM]	Substance	IC50 [1] [nM]
					SARS-CoV-2 RBD peptide RBD487-501 (from UniProt P0DTC2 487-501)	293
					SARS-CoV-2 RBD peptide RBD491-505 (from UniProt P0DTC2 491-505)	152
0 to 25	< 300	< 300	300	4	biotin-labeled human Class II-associated Invariant Chain Peptide (Bio-CLIP)	
